Test results: patent US20210071137A1, “PRODUCTION METHOD FOR CELL MASS INCLUDING NEURAL CELLS/TISSUE AND NON-NEURAL EPITHELIAL TISSUE, AND CELL MASS FROM SAME” (SUMITOMO CHEMICAL COMPANY, LIMITED, priority 2017, published 2021)
Counter-ions that a name gives are not always drawn.

How the values were obtained:
Format in all cases: cell-based
[1] = test system: cell mass containing neural tissue and nonneural epithelial tissue prepared from human ES cell line KhES-1; assay: Compound stimulability test by fluorescein staining and extraction (Example 11); conditions: test compound 2.5% in PBS, 24 hr, 37° C.; 0.02% fluorescein 30 sec; extraction 10 min; excitation 485 nm, emission 535 nm; Category 1 compound versus Category 2 compound
Experimental: Cell masses were prepared by the method described in Example 3 from human ES cell line KhES-1. Cell masses were collected using micropipette on day 28 from the start of suspension culturing, placed in a dish for suspension culture (manufactured by SUMITOMO BAKELITE CO., LTD.), and further cultured in suspension under the conditions of 37° C., 5% CO2 for 9 days. As the serum-free medium (gfCDM+KSR) therefor, a serum-free medium which is a 1:1 mixture of F-12+Glutamax medium (manufactured by Thermo Fisher Scientific) and […] medium (manufactured by Thermo Fisher Scientific) supplemented with 10% Knockout Serum Replacement (manufactured by Thermo Fisher Scientific), 450 μM 1-mono thioglycerol (manufactured by Wako Pure Chemical Industries, Ltd.), 1×Chemically defined lipid concentrate (manufactured by Thermo Fisher Scientific), 50 unit/ml penicillin-50 μg/ml streptomycin (manufactured by Nacalai Tesque) was used.
The cell masses on day 37 of suspension culturing and prepared by the above-mentioned method were added to 1.5 ml microtubes at 3 masses per tube, and washed twice with PBS. […] The concentration of fluorescein in the extract prepared by the above-mentioned method was measured using a fluorescent plate reader (2104 EnVision multilabel counter, manufactured by Perkin Elmer) under the conditions of excitation 485 nm and emission 535 nm.

[2] = test system: Human ES cells (KhES-1 strain); assay: Consideration of timing of addition of BMP4 in production of cell mass (Example 4)
Experimental: (§1) Human ES cells (KhES-1 strain, obtained from Kyoto University) were cultured under feeder-free conditions according to the method described in Scientific Reports, 4, 3594 (2014). As the feeder-free medium, StemFit medium was used and, as the feeder-free scaffold, Laminin 511-EB was used.
Specific maintenance culturing operation was performed in the same manner as in Comparative Example 1. Thereafter, suspension culturing in a 96-well plate under conditions similar to those in Comparative Example 1 was started. The condition without addition of a BMP signal transduction pathway activating substance during the suspension culturing period was taken as the control (−BMP4 condition, FIG. 5A). In the condition with the addition of a BMP signal transduction pathway activating substance simultaneously with the start of the suspension culturing (Day0+BMP4 condition, FIG. 5B), human recombinant BMP4 (manufactured by R & D Systems, 1.5 nM, start of step 2) was added. Thereafter, in the condition with the addition of a BMP signal transduction pathway activating substance on days 1, 2, 3 from the start of suspension culturing (Day1-3+BMP4 condition, FIGS. 5C-E), a serum-free medium not containing Y27632 and containing IWP-2, SB-431542, BMP4 was added at 100 μl per well. BMP4 was added at 3 nM to the medium such that the final concentration thereof in the well was 1.5 nM. Only in the Day0+BMP4 condition, a serum-free medium not containing Y27632 and containing IWP-2, SB-431542, BMP4 was added at 100 μl per well on day 3 from the start of suspension culturing. In the condition with the addition of a BMP signal transduction pathway activating substance on day 6 from the start of differentiation induction (Day6+BMP4 condition, FIG. 5F), a serum-free medium not containing Y27632 or BMP4 and containing IWP-2 and SB-431542 was added at 100 μl per well on day 3 from the start of differentiation induction, and a half amount of the medium was changed on day 6 with a serum-free medium not containing Y27632 and containing IWP-2, SB-431542, BMP4. Under other conditions, a half amount of the medium was changed with a serum-free medium not containing Y27632 or BMP and containing IWP-2 and SB-431542 on day 6 from the start of suspension culturing. On day 10 from the start of suspension culturing, bright field observation was performed using an inverted microscope (manufactured by KEYENCE CORPORATION, BIOREVO) (FIGS. 5A-B).

[3] = test system: Human ES cells (KhES-1 strain); assay: Consideration of concentration of BMP4 in production of cell mass (Example 6)
Experimental: as §1, with “511-E8” for “511-EB”, “used. Specific maintenance culturing operation was performed in the same manner as in Comparative Example 1.” for “used.”
The thus-prepared subconfluent human ES cells were washed with PBS, subjected to an enzyme treatment using Accumax, a serum-free medium for differentiation induction was added, and the cells were scraped from the surface of the culture dish by using a cell scraper and dispersed into single cells by pipetting. Thereafter, the aforementioned human ES cells dispersed into single cells were suspended in 100 μl of a serum-free medium at 1×10^4 cells per well of a non-cell-adhesive 96-well culture plate (PrimeSurface 96V-bottom plate, manufactured by SUMITOMO BAKELITE), and cultured in suspension under the conditions of 37° C., 5% CO2. […]

[4] = BMP4 1.5 nM, observation day 10

elution amount after incorporation of fluorescein [1] | Molecule | time of addition from the start of suspension culturing effective for formation of the cell mass ([2]; BMP4 1.5 nM) [h] | formation of cell masses with two-layer structure ([2]; BMP4 1.5 nM added on day 1 and day 2 (Day1, 2+BMP4), observation day 10) | efficiency of formation of nonneural epithelium-like tissue on the outside ([2]; BMP4 1.5 nM added on day 3 and day 6, observation day 10) | formation of embryoid body ([2]; BMP4 1.5 nM added simultaneously with start of differentiation induction (Day0+BMP4), observation day 10) | diameter of embryoid body, BMP4 on day 2 relative to BMP4 on day 1 [2, 4] | volume of embryoid body, BMP4 on day 2 relative to BMP4 on day 1 [2, 4] | BMP4 concentration at which nonneural epithelial tissue can be formed on the surface of cell mass ([3]; BMP4 added on day 2 from the start of suspension culturing) | formation of cell mass having nonneural epithelial tissue on the surface ([3]; BMP4 at any concentration from 0.1 nM to 5 nM added on day 2, IWP-2 2 μM, SB-431542 1 μM, observation day 10)
significant difference | O=Cc1ccc(C(=O)O)cc1 [4-formylbenzoic acid] |  |  |  |  |  |  |  | 
significant difference | CC(CN1c2ccccc2Sc2ccccc21)N(C)C (stereo not shown) [promethazine hydrochloride] |  |  |  |  |  |  |  | 
 | BMP4: human recombinant BMP4 (manufactured by R & D Systems), BMP signal transduction pathway activating substance (protein, UniProt P12644 293-408, looked up) Bone morphogenetic protein 4: SPKHHSQRARKKNKNCRRHSLYVDFSDVGWNDWIVAPPGYQAFYCHGDCPFPLADHLNSTNHAIVQTLVNSVNSSIPKACCVPTELSAISMLYLDEYDKVVLKNYQEMVVEGCGCR | ≤ 72 | cell masses containing neural tissue and nonneural epithelial tissue and having a two-layer structure in which a center part with a neuroepithelium-like structure is covered with a nonneural epithelium-like layer were formed | lower than that of the condition with the addition of BMP4 on day 2 | markedly inhibited | about 1.3 times | about 2.2 times | not less than 0.1 nM | a cell mass having nonneural epithelial tissue on the surface was formed
